Measured values reported in US20030054439A1 (Amgen, published 2003).

Biological target: TNFα from R&D Systems (L929 cytotoxicity assay)
Test: cell-based or functional assay

B1: sTNFR-I 3D/N105 (receptor)
chain: DSVCPQGKYIHPQNNSICCTKCHKGTYLYNDCPGPGQDTDCRECESGSFTASENHLRHCLSCSKCRKEMGQVEISSCTVDRDTVCGCRKNQYRHYWSENLFQCFNCSLCLNGTVHLSCQEKQNTVCT
ED50 (ng/mL), L929 cytotoxicity assay, run #2, single data point: 413 ng/mL
